Our source for the Mean relative activity values is patent publication US20220259593A1, “CONTROL OF MAMMALIAN GENE DOSAGE USING CRISPR” (The Regents of the University of California, priority 2019, published 2022).

The labels stand for the following.
B1: cr519 (nucleic acid)
guide: GTTTAAGAGCTAAGCTGGAAACAGCATAGCAAGGTTAAATAAGGCTAGTCCGTTATCAACTTGAAAAAGTGGCGCCGAGTCGGCGCT
modifications: listed as DNA, chemistry not fully specified
B2: cr864 (nucleic acid)
guide: GTTTAAGAGCTAAGCTGGAAACAGCATAACAAGTTTAAATTAGGCTAGTCCGTTATCAACTTGAAAAAGTGGCACCGAGTCGGTGCT
modifications: listed as DNA, chemistry not fully specified
B3: cr834 (nucleic acid)
guide: GTTTAAGAGCTAAGCTGGAAACAGCATAGCAAGGTTAAATAAGGCTAGTCCGTTATCAACTTGAGAAAGTGGCACCGAGTCGGTGCT
modifications: listed as DNA, chemistry not fully specified
B4: cr042 (nucleic acid)
guide: GTGGAAGAGCTAAGCTGGAAACAGCATAGCAAGTTTAAATAAGGCTAGTCCGTTATCAACTTGAAAAAGTGGCACCGAGTCGGTGCT
modifications: listed as DNA, chemistry not fully specified
B5: cr504 (nucleic acid)
guide: GTTTAAGAGCTAAGCTGGAAACAGCATAGCAAGGTTAAATAAGGCTAGTCCGTTATCAACTGGAAACAGTGGCACCGAGTCGGTGCT
modifications: listed as DNA, chemistry not fully specified
B6: cr382 (nucleic acid)
guide: GTTTAAGAGCTAAGCTGGAAACAGCATAGCAAGGTTAAATAACGCTAGTCGGTTATCAACTTGAAAAAGTGGCACCGAGTCGGTGCT
modifications: listed as DNA, chemistry not fully specified
B7: cr031 (nucleic acid)
guide: GTAAAAGAGCTAAGCTGGAAACAGCATAGCAAGTTTAAATAAGGCTAGTCCGTTATCAACTTGAAAAAGTGGCACCGAGTCGGTGCT
modifications: listed as DNA, chemistry not fully specified
B8: cr384 (nucleic acid)
guide: GTTTAAGAGCTAAGCTGGAAACAGCATAGCAAGTTTAAATAAATCTAGTATGTTATCAACTTGAAAAAGTGGCACCGAGTCGGTGCT
modifications: listed as DNA, chemistry not fully specified
B9: cr987 (nucleic acid)
guide: GTTTAAGAGCTAAGCTGGAAACAGCATAGCAAGTTTAAATAAGGCTAGGCCGTTATCAACTTGATAAAGTGGCACCGAGTCGGTGCT
modifications: listed as DNA, chemistry not fully specified
B10: cr731 (nucleic acid)
guide: GTTTAAGAGCTAAGCTGGAAACAGCATAGCAAGGTTAAATAAGGCTAGTCCGTTATCAACTTGAAAAAGTGGTACCGAGTCGGTACT
modifications: listed as DNA, chemistry not fully specified
B11: cr963 (nucleic acid)
guide: GTTTAAGAGCTAAGCTGGAAACAGCATAGCAAGTTTAAATAACGCTAGTCGGTTATCAACTTGAAAAAGTGGCGCTGAGTCAGCGCT
modifications: listed as DNA, chemistry not fully specified
B12: cr462 (nucleic acid)
guide: GTTTAAGAGCTAAGCTGGAAACAGCATAGCAAAATTAAATAAGGCTAGTCCGTTATCAACTTGAAAAAGTGGCACCGAGTCGGTGCT
modifications: listed as DNA, chemistry not fully specified
B13: cr324 (nucleic acid)
guide: GTTTAAGAGCTAAGCTGGAAACAGCATAGCAAGTTTAAATAACGCTAGTCGGTTATCAACCTGAAAAGGTGGCACCGAGTCGGTGCT
modifications: listed as DNA, chemistry not fully specified
B14: cr541 (nucleic acid)
guide: GTTTAAGAGCTAAGCTGGAAACAGCATAGCAAGTTTAAATAAAGGTACTCTGTTATCAACTTGAAAAAGTGGTACCGAGTCGGTACT
modifications: listed as DNA, chemistry not fully specified
B15: cr448 (nucleic acid)
guide: GTTTAAGAGCTAAGCTGGAAACAGCATAGCAACTTTAAATAAGCCTAGTGCGTTATCAACTTGAAAAAGTGGCACCGAGTCGGTGCT
modifications: listed as DNA, chemistry not fully specified
B16: cr954 (nucleic acid)
guide: GTTTAAGAGCTAAGCTGGAAACAGCATAGCAAGGTTAAATAAGGCTAGTCCGTTATCAAATTGAAAAATTGGCACCGAGTCGGTGCT
modifications: listed as DNA, chemistry not fully specified
B17: cr170 (nucleic acid)
guide: GTTTAAGAGCTAAGCTGGAAACAGCATAGCAAGGTTAAATAAGGCTAGTCCGTTATCAACTTGAAAAAGTGACACCGAGTCGGTGTT
modifications: listed as DNA, chemistry not fully specified
B18: cr336 (nucleic acid)
guide: GTTTAAGAGCTAAGCTGGAAACAGCATAGCAAGTTTAAATAAGGGTACTCCGTTATCAAATTGAAAAATTGGCACCCAGTGGGTGCT
modifications: listed as DNA, chemistry not fully specified
B19: cr261 (nucleic acid)
guide: GTTTAAGAGCTAAGCTGGAAACAGCATAGCAAGGTTAAATAAGGCTAGTCCGGTATCAACTTGAAAAAGTGGCACCGAGTCGGTGCT
modifications: listed as DNA, chemistry not fully specified
B20: cr841 (nucleic acid)
guide: GTTTAAGAGCTAAGCTGGAAACAGCATAGCAAGGTTAAATAAGGCTAGTCCGTTATCACCTTGAAAAAGGGGCACCGAGTCGGTGCT
modifications: listed as DNA, chemistry not fully specified
B21: cr263 (nucleic acid)
guide: GTTTAAGAGCTAAGCTGGAAACAGCATAGCAAGTTTAAATAAGGCTAGTCCGTTATCAACTTGAACAAGTGGCACCGAGTCGGTGCT
modifications: listed as DNA, chemistry not fully specified
B22: cr964 (nucleic acid)
guide: GTTTAAGAGCTAAGCTGGAAACAGCATAGCTAGTTTAAATAAGGCTAGTCCGTTATCAACTTGAGAAAGTGGCACCGAGTCGGTGCT
modifications: listed as DNA, chemistry not fully specified

One data set relates to K562 CRISPRi cells. Description: Constant region variant library pooled growth screen, K562. Conditions: sgRNA constant region variant; activity relative to unmodified constant region cr995; mean CRISPRi activity. Format: cell-based, human. Summed up: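 Library of sgRNA constant-region variants, each paired with 36 targeting sequences (essential-gene and non-targeting), transduced in duplicate into K562 CRISPRi cells, puromycin-selected and grown 4–8 days at >2000× coverage. Activity per variant is its growth phenotype normalised to the same targeting sequence with unmodified constant region.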
With B1, the Mean relative activity came to 0.01933. On to B2, for which the Mean relative activity was 0.01678. In the case of B3, the Mean relative activity came to 0.01861. Same read-out and setting: under B4 stands 0.0164; under B5, 0.01685; under B6, 0.01715.

Molecule B7 yielded a Mean relative activity of 0.01677. Still for that read-out and setting: under B8 stands 0.01438; under B9, 0.01815.

Molecule B10 yielded a Mean relative activity of 0.01505.

B11: the Mean relative activity was 0.01551. B12 displayed a Mean relative activity of 0.01488. Same read-out and setting: in the case of B13 it was 0.01711; in that of B14, 0.01856. The same measure, in the same setting: in the case of B15 it was 0.01746; in that of B16, 0.01751; in that of B17, 0.01501.

As to B18, the Mean relative activity is recorded as 0.01616. For the molecule B19, the Mean relative activity amounted to 0.01441. B20 gave a Mean relative activity of 0.01636.

Still in this data set, the particulars now being: sgRNA constant region variants; activity relative to the original, un-modified constant region cr995.
As for B21, the Mean relative activity is 1.033. The molecule B22 displayed a Mean relative activity of 1.033.
